Laboratory results taken from patent publication US20200031947A1.

Target: cynomolgus GITR (cyGITR), soluble analyte (cynomolgus)
Assay: SPR (Biacore T200), 37 C; antibody captured on anti-human Fc chip, GITR as analyte; 1:1 Langmuir fit

B1: h3G7 H1 (antibody, V domains shown)
VH: EVQLVESGGGLVQPGGSLRLSCAASGFTFSDYTMNWVRQAPGKGLEWVALINPYNGGIRYNQKFKGRFTISRDNAKNSLYLQMNSLRAEDTAVYYCARIGGYYDSMDYWGQGTLVTVSS
VL: DIQMTQSPSSLSASVGDRVTITCRASESVDNFGINFLNWYQQKPGKAPKLLIYAASNQGSGVPSRFSGSGSGTDFTLTISSLQPEDFATYYCQQSKELPWTFGGGTKVEIK
- Kd: > 0.1 µM
- koff: 0.078 s⁻¹
- t1/2: 9 s
